For assay [1], the target named is T1, DLC-1 peptide (nonphosphorylated) (Homo sapiens).
T1 chain: CSRLSIYDNVPG
Kind of assay: SPR.

Assay [2] deals with T2, DLC-1 peptide (pY442) (Homo sapiens).
T2 chain: CSRLSI[pY]DNVPG
The assay is described as follows: SPR. In general terms: In SPR one partner is held on a chip, and binding of the other changes the refractive index at the surface.

In general, Kd refers to the concentration at which binding is half-saturated. Low values mean higher affinity, high ones lower affinity.

Where no end group is shown, it is not given here. [ ]: non-standard residue; d: D form. pY = N[C@@H](Cc1ccc(OP(=O)(O)O)cc1)C(=O)O

B1: Tensin2 SH2 domain 1135-1248 (protein)
chain: DTSKFWYKPHLSRDQAIALLKDKDPGAFLIRDSHSFQGAYGLALKVATPPPSAQPWKGDPVEQLVRHFLIETGPKGVKIKGCPSEPYFGSLSALVSQHSISPISLPCCLRIPSK
For the molecule B1, the Kd in assay [1] was approximately 248 nM; in assay [2], approximately 31 nM.

(Values after publication PMC3134462 (2011).)
